These results are taken from US20250009876A1 (H LUNDBECK A S, published 2025).

Changes are numbered by the printed parent chain.

To fix the notation:
B1: Ab10 (antibody, human IgG1, kappa, N297A, V domains shown)
VH: QSVEESGGRLVTPGTPLTLTCTVSGIDLNSYYMTWVRQAPGKGLEWIGFIDAGGDAYYASWAKGRFTISKTSTTVDLKITSPTTEDTATYFCARDLDLWGQGTLVTVSS
VL: AAVLTQTPSPVSAAVGGTVTINCQSSESVYGNYLAWFQQKPGQPPKLLIYEASKLESGVPSRFSGSGSGTQFTLTISDLQCDDAATYYCAGGDISEGVAFGGGTEVVVKR
notes: Full-length anti-PACAP antibody; rabbit variable regions cloned onto human constant regions (rabbit/human chimeric), expressed in HEK-293
B2: Ab20 (antibody, human IgG1, kappa, N297A, V domains shown)
VH: B1 VH with N29S, T34S, A52T, G53D, D55S, S60T, Q101P
VL: B1 VL with T20S, N22S, G31S, L47F, E56A, S64K, L79V, A85G, D93Y, I94S
notes: Full-length anti-PACAP antibody; rabbit/human chimeric
B3: Ab10.H (antibody, human IgG1, kappa, N297A)
heavy: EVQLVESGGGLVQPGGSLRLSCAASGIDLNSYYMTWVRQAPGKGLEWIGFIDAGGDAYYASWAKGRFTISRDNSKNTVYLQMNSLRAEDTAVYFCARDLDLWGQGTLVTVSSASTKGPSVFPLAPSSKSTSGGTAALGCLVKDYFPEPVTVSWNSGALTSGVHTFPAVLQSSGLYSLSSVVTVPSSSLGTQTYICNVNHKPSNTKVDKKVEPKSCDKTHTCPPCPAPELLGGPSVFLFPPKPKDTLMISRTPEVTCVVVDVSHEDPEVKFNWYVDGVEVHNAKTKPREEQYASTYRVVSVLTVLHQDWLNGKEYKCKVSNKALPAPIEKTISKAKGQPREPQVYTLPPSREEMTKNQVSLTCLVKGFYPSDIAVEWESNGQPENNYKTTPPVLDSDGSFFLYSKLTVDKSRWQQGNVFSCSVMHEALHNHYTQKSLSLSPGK
light: DAQLTQSPSTLSASVGDRVTITCQSSESVYGNYLAWFQQKPGKAPKFLIYEASKLESGVPSRFSGSGSGTEFTLTISSLQPDDFATYYCAGGDISEGVAFGGGTKVEIKRTVAAPSVFIFPPSDEQLKSGTASVVCLLNNFYPREAKVQWKVDNALQSGNSQESVTEQDSKDSTYSLSSTLTLSKADYEKHKVYACEVTHQGLSSPVTKSFNRGEC
notes: Full-length humanized variant of Ab10

The target of one assay is T1, PACAP38 (Pituitary Adenylate Cyclase-Activating Polypeptide, 38 amino acids) (human, not fully specified; the C-terminal lysine is amidated).
T1 peptide: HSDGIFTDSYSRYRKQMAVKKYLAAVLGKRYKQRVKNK
The assay can be described thus: cell-based or functional assay.
Regarding B1, the “Inhibition of 5 nM PACAP38-induced human VPAC1-R mediated cAMP increase IC50 (pM)” value was 649 pM.
For B2, the “Inhibition of 5 nM PACAP38-induced human VPAC1-R mediated cAMP increase IC50 (pM)” value was determined as 3890 pM.
For the molecule B3, the “Inhibition of 5 nM PACAP38-induced human VPAC1-R mediated cAMP increase IC50 (pM)” value was found to be 1340 pM.

For another assay, the target named is T1, PACAP38 (Pituitary Adenylate …). Kind of assay: cell-based or functional assay. This is another data set of the same source.
Turning to B1, the “Inhibition of 1 nM PACAP38-induced human VPAC2-R mediated cAMP increase IC50 (pM)” value amounted to 188 pM.
On to B2, for which the “Inhibition of 1 nM PACAP38-induced human VPAC2-R mediated cAMP increase IC50 (pM)” value was 14600 pM.
As for B3, the “Inhibition of 1 nM PACAP38-induced human VPAC2-R mediated cAMP increase IC50 (pM)” value is 988 pM.

Another assay has the same target. The assay can be described thus: cell-based or functional assay. This is another data set of the same source.
On to B1, for which the “Inhibition of 0.1 nM PACAP38-induced PAC1-R mediated cAMP increase IC50 (pM)” value came to 180 pM.
For B2, the “Inhibition of 0.1 nM PACAP38-induced PAC1-R mediated cAMP increase IC50 (pM)” value was found to be 368 pM.
Regarding B3, the “Inhibition of 0.1 nM PACAP38-induced PAC1-R mediated cAMP increase IC50 (pM)” value stood at 163 pM.

For another assay, the target named is T2, PACAP27 (Pituitary Adenylate Cyclase-Activating Polypeptide, 27 amino acids) (human, the C-terminal leucine is amidated).
T2 peptide: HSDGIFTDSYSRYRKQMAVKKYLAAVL
Kind of assay: cell-based or functional assay.
As for B1, the “Inhibition of 0.1 nM PACAP27-induced PAC1-R mediated cAMP increase IC50 (pM)” value was found to be 227 pM.
Same read-out and setting: in the case of B2 it was 188 pM.
Turning to B3, the “Inhibition of 0.1 nM PACAP27-induced PAC1-R mediated cAMP increase IC50 (pM)” value turned out to be 84 pM.

Another assay has as its target T1, PACAP38 (Pituitary Adenylate …). The assay can be described thus: SPR (ProteOn XPR36), antibody amine-coupled, peptide analyte, 1:1 Langmuir fit. Put shortly:
(§1)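 Antibody amine-coupled to GLC or GLM chips; peptide antigen injected at 1.23 nM to 100 nM, association 2-4 min, dissociation 3-120 min. Sensorgrams fitted to a 1:1 Langmuir model; surfaces regenerated with 0.85% phosphoric acid between analytes.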
A word on the Kd: it is the free concentration of one partner at which half of the binding sites on the other are occupied at equilibrium, for simple one-to-one binding. Lower therefore signals higher affinity. One may read the koff as a measure of how fast the partners let go of each other. A lower koff goes with a long-lived complex. Usually kon stands for the rate constant with which the complex forms. A lower kon goes with slow association. Molecule B1 registered a Kd of 0.075 nM, a koff of 2e-05 s⁻¹ and a kon of 260000 M⁻¹ s⁻¹.
The matching figures for B2: 0.21 nM, 2.4e-05 s⁻¹ and 120000 M⁻¹ s⁻¹.
In turn, B3 displayed a Kd of at most 0.029 nM, a koff of at most 1e-05 s⁻¹ and a kon of 340000 M⁻¹ s⁻¹.

Another assay addresses T2, PACAP27 (Pituitary Adenylate …). The description is as above. In outline:
as §1
On to B1, for which the Kd is at most 0.01 nM, the koff was at most 1e-05 s⁻¹ and the kon amounted to 1e+06 M⁻¹ s⁻¹.
The matching figures for B2: 0.07 nM, 2.2e-05 s⁻¹ and 320000 M⁻¹ s⁻¹.
The matching figures for B3: 0.033 nM, 1.8e-05 s⁻¹ and 530000 M⁻¹ s⁻¹.

The target of another assay is T3, PAC1-R on PAC1-R-expressing PC-12 cells (UniProt P32215 20-523).
T3 construct: whole, on cells; also called PAC1 receptor
T3 sequence (looked up): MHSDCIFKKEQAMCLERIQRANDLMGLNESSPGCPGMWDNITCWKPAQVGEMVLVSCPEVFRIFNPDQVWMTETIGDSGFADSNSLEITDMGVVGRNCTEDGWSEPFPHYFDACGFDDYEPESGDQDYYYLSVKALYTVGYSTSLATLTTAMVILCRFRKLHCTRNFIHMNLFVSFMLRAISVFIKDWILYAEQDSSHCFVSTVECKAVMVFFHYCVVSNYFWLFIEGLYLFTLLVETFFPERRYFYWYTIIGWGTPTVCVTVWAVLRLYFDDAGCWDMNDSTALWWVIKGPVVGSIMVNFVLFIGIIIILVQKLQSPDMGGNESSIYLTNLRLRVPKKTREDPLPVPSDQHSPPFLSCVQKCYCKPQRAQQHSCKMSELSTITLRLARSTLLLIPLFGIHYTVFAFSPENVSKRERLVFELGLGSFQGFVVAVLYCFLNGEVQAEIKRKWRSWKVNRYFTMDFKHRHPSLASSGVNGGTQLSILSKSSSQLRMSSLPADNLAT
The assay can be described thus: cell surface binding assay (DELFIA TRF): antibody pre-incubated with PACAP38, added to PAC1-R-expressing PC-12 cells, detected with Eu anti-human IgG.
For the molecule B1, the binding result is “no binding (tested: about 5000 nM)”.
Regarding B2, the binding result is reported as “no binding (tested: about 500 nM)”.
For the molecule B3, the binding result is “no binding (tested: about 70 nM)”.
